# According to paper PMC8277577 (Nature, 2021):
# Changes are numbered by the printed parent chain.
# B1: C1015 (antibody, V domains shown)
# VH: QVQLQESGPRLVKPSGSLSLTCAVSGGSLSSSNWWNWVRQSPEKGLEWIGEIFHSGSTYYNPSLKSRVTISVDKSKNHFSLNLRSVTAADTAVYYCAGSYSNYIGGVWFDPWGQGTLVTVSS
# VL: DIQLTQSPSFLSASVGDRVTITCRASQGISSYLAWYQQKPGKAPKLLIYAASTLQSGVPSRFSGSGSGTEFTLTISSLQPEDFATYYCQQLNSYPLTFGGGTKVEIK
# notes: source: recombinant, purified
# B2: C1010 (antibody, V domains shown)
# VH: QVQLVESGGGVVQPGRSLRLSCAASGFTFSSYAMHWVRQAPGKGLEWVAVISYDGSNKYYADSVKGRFTISRDNSKNTLYLQMNSLRAEDTAVYYCAKKGQPYCGGDCYFYYFDYWGQGTLVTVSS
# VL: DIQMTQSPSSLSASLGDRVTITCQASQDISNYLNWYQQKPGKAPKLLIYDASNLETGVPSRFSGSGSGTDFTFTISSLQPEDIATYYCQQYDNLPPITFGQGTRLEIK
# notes: source: recombinant, purified
# B3: C1011 (antibody, V domains shown)
# VH: QVQLVESGGGVVQPGRSLRLSCAVSGFTFSHYAMHWVRQAPGKGLEWVAVISYDGADKYYADSVRGRFTIARDNSKNTLFLQMSSLRPEDTAVYYCAKKGQPYCGGDCHFYYLDYWGQGTLVTVSS
# VL: B2 VL with L15V, Y32H, P80A
# notes: source: recombinant, purified
# B4: C916 (antibody, V domains shown)
# VH: EVQLVESGGGLVQPGGSLRLSCAASGFTFSNYDMHWVRQATGRGLEWVSTIGTAGDTYYPGSVKGRFTISRENAKNSLYLQMNSLRAGDTALYYCARVRYDSSGYFWSLDYWGQGTLVTVSS
# VL: not shown
# notes: source: recombinant, purified
# B5: C917 (antibody, V domains shown)
# VH: B4 VH with R43K, E46D, L92V, Y100F, S102T
# VL: not shown
# notes: source: recombinant, purified
# B6: C936 (antibody, V domains shown)
# VH: EVQLVESGGGLIQPGGSLRLSCAASGFTVSSNYMSWVRQAPGKGLEWVSVIYSGGSTFYADSVKGRFTISRDNSKNTLYLQMNSLRAEDTAVYYCARDLGTGLFDYWGQGTLVTVSS
# VL: DIQLTQSPSFLSASVGDRVTITCRASQGISSYLAWYQQKPGKAPKLLIYAASTLQSGVPSRFSGSGSGTEFTLTISSLQPEDFATYYCQQLDSYPPGTFGPGTKVDIK
# notes: source: recombinant, purified
# B7: C841 (antibody, V domains shown)
# VH: EVQLVESGGGLVQPGGSLRLSCAASGFTFSIFSMNWVRQAPGKGLEWISYISSSSGSRHYADSVKGRFTISRDNAKNSLYLQMNNLRDEDTAMYYCAREAHDGALTGYGDYLNWFDPWGQGVLVTVSS
# VL: SYELTQPPSVSVAPGKTARIPCGGDSVGSKSVHWYQQKSGQAPVLVIHSDSDRPSGIPERFSGSNSGNTATLTITGVAAGDEADYYCHVWDTIGDRFYWVFGGGTKLTVL
# notes: source: recombinant, purified
# Molecular target: T1, SARS-CoV-2 receptor binding domain (RBD) (SARS-CoV-2, GenBank MN985325.1 …, UniProt P0DTC2)
# Experiment: ELISA
# Settings: both partners purified
row,Binder,binding result
1,B1,no binding (tested: >1000 ng/ml)

# Molecular target: T1, SARS-CoV-2 receptor binding domain (RBD)
# Experiment: BLI
# Settings: both partners purified
row,Binder,Kd [nM]
1,B2,16.3
2,B3,0.0121
3,B4,2.92
4,B5,0.999
5,B6,157
6,B7,6.08
